Reference: patent US20210403579A1 (DELINIA, published 2021)

T1: Human ST2 (human, UniProt Q01638 19-328, limits assumed)
T1 construct: also called human ST2 protein; Interleukin 1 receptor-like 1
T1 sequence (looked up): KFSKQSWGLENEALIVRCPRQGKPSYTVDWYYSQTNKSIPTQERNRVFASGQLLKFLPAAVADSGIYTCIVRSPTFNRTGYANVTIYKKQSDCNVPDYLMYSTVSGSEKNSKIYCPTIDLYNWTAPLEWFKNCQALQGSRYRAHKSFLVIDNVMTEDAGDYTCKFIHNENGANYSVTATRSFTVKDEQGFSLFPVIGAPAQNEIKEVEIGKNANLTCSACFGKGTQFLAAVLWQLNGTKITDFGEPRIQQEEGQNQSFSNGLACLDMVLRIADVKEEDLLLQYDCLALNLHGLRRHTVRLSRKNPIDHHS

T2: Mouse ST2 (mouse, UniProt P14719 27-332, limits assumed)
T2 construct: also called mouse ST2 protein
T2 sequence (looked up): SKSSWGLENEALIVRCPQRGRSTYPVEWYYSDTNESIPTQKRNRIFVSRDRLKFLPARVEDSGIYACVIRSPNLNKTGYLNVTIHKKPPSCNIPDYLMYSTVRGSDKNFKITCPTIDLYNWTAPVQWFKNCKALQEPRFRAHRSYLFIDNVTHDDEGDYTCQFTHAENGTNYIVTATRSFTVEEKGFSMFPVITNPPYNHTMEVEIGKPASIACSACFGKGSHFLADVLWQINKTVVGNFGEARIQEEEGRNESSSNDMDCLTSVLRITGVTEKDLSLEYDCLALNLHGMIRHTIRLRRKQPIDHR


Key:
[1] = biological target: T1, Human ST2; experiment: SPR (Carterra), antibody immobilized, ST2 analyte, 1:1
Description: (§1) Binding of the reformatted human ST2 antibodies to the human and mouse ST2 proteins was evaluated by surface plasmon resonance (SPR), using a high throughput antibody screening and characterization platform from Carterra (Salt Lake City, Utah).

[2] = biological target: T2, Mouse ST2; experiment: as above
Description: as §1

Row | Binder | Kd [1] | koff [1] | kon [1] | Kd [2] | koff [2] | kon [2]
1 | Human ST2 IgG1 Antibody 102 (antibody, V domains shown, IgG1, kappa) VH: QVQLVQSGAEVKKPGSSVKVSCKASGYIFTRYYVNWVRQAPGQGLEWMGGIIPMFGTSNYAQKFQGRVTITADESTSTAYMELSSLRSEDTAVYYCARSSGYDSFKIDYWGQGTLVTVSS VL: not shown | 270 nM | 0.065 s⁻¹ | 240000 M⁻¹ s⁻¹ | – | – | –
2 | Human ST2 IgG1 Antibody 107 (antibody, V domains shown, IgG1, kappa) VH: QVQLVQSGAQVKKPGASVKVSCKASGGTFSSYTISWVRQAPGQGLEWMGVIYPSGDITVYAQEFQGRVTMTRDTSTSTVYMELSSLRSEDTAVYYCARAWARYFDYWGQGTLVTVSS VL: DIQMTQSPSSLSASVGDRVTITCQASQDISNYLNWYQQKPGKAPKLLIYDASNLQAGVPSRFSGSGSGTDFTLTISSLQPEDFATYYCQQSYSSPITFGQGTRLEIKR | 465 nM | 0.062 s⁻¹ | 130000 M⁻¹ s⁻¹ | – | – | –
3 | Human ST2 IgG1 Antibody 104 (antibody, V domains shown, IgG1, kappa) VH: QVQLVQSGAEVKKPGSSVKVSCKASGYTFTNYAIIWVRQAPGQGLEWMGGIIPVFGTADYTQTFQGRVTITADESTSTAYMELSSLRSEDTAVYYCARVSTNYYDSSGYYAFDYWGQGTLVTVSS VL: DIQMTQSPSSLSASVGDRVTITCRASQSISSYLNWYQQKPGKAPKLLIYDASSLQSGVPSRFSGSGSGTDFTLTISSLQPEDFATYYCQQTYHTPWTFGQGTKVEIKR | 121 nM | 0.061 s⁻¹ | 510000 M⁻¹ s⁻¹ | 684 nM | 0.096 s⁻¹ | 140000 M⁻¹ s⁻¹
4 | Human ST2 IgG1 Antibody 105 (antibody, V domains shown, IgG1, kappa) VH: EVQLLESGGGLVQPGGSLRLSCAASGFTFSSYAMHWVRQAPGKGLEWVAVMSYDGRHEYYADSVKGRFTISRDNSKNTLYLQMNSLRAEDTAVYYCASTDYDIGGYSLPLDYWGQGTLVTVSS VL: DIQMTQSPSSLSASVGDRVTITCRASQSVSSWLAWYQQKPGKAPKLLIYAASNLQSGVPSRFSGSGSGTDFTLTISSLQPEDFATYYCQQSYDVPWTFGQGTRLEIKR | 256 nM | 0.095 s⁻¹ | 370000 M⁻¹ s⁻¹ | 172 nM | 0.07 s⁻¹ | 410000 M⁻¹ s⁻¹
5 | Human ST2 IgG1 Antibody 108 (antibody, V domains shown, IgG1, kappa; also called ST2 Antibody 108) VH: QVQLVQSGAEVKKPGASVKVSCKASGNTFTAYYMHWVRQAPGQGLEWMGIINPSGGSTSYAQKFQGRVTMTRDTSTSTVYMELSSLRSEDTAVYYCARGVGATNYWGQGTLVTVSS VL: DIQMTQSPSSLSASVGDRVTITCRASQGISNNLNWYQQKPGKAPKLLIYAASSLQSGVPSRFSGSGSGTDFTLTISSLQPEDFATYYCQQGFNFPLTFGGGTKVEIKR | 28 nM | 0.0056 s⁻¹ | 200000 M⁻¹ s⁻¹ | – | – | –
6 | Human ST2 IgG1 Antibody 109 (antibody, V domains shown, IgG1, kappa) VH: QVQLVQSGAEVKKPGSSVKVSCKASGYRFTDYYIHWVRQAPGQGLEWMGIIQPTGGGTTYAQKFQGRVTITADESTSTAYMELSSLRSEDTAVYYCARVGATVTKNYYYYYGMDVWGQGTTVTVSS VL: not shown | 10 nM | 0.0061 s⁻¹ | 600000 M⁻¹ s⁻¹ | 1.1 nM | 0.0013 s⁻¹ | 1.1e+06 M⁻¹ s⁻¹
7 | Human ST2 IgG1 Antibody 106 (antibody, V domains shown, IgG1, kappa) VH: QVQLVQSGAEVKKPGSSVKVSCKASGYTFTDYYIHWVRQAPGQGLEWMGGIIPIYGTANYAQKFQGRVTITADESTSTAYMELSSLRSEDTAVYYCARTNWGMDVWGQGTTVTVSS VL: EIVMTQSPATLSVSPGERATLSCRASQGIPSNSLAWYQQKPGQAPRLLIYGTSARASGIPARFSGSGSGTEFTLTISSLQSEDFAVYYCQQYYSTPWTFGQGTKVEIKR | 616 nM | 0.15 s⁻¹ | 240000 M⁻¹ s⁻¹ | – | – | –
8 | Human ST2 IgG1 Antibody 103 (antibody, V domains shown, IgG1, kappa; also called ST2 Antibody 103) VH: QVQLVQSGAEVKKPGASVKVSCKASGYTFTSYYMHWVRQAPGQGLEWMGWMNPNSGNTGYAQKFQGRVTMTRDTSTSTVYMELSSLRSEDTAVYYCARETSFDYYYGMDVWGQGTTVTVSS VL: DIQMTQSPSSLSASVGDRVTITCRASQSISNWLAWYQQKPGKAPKLLIYDGSNLGTGVPSRFSGSGSGTDFTLTISSLQPEDFATYYCLQDFTYPLTFGGGTKVEIKR | 140 nM | 0.0063 s⁻¹ | 45000 M⁻¹ s⁻¹ | 211 nM | 0.0058 s⁻¹ | 27000 M⁻¹ s⁻¹
